1 substance from article PMC8642242 can be followed below.

The target of the test is SARS-CoV-1 (Sino 1-11) RBD, His-tagged (SARS-CoV-1).

Take WRAIR-2063 (human IgG1) (antibody): the IC50 of neutralization of SARS-CoV-1 (Sino 1-11) pseudovirus came out at 0.095 µg/mL.
